The labels stand for the following.
B1: sdAb F4 (VHH)
VHH: DVQLQESGGGLVQAGGSLRLSCAVSGLSFSSMGWFRQPPGKEREFVAAISLYSGSTYYADSVKGRFTISSDNAKSTVYLQMNSLKPEDAAVYFCAADRQRTWSTFYASRQATYNYWGQGTQVTVTS
B2: NIgG4B1A1(RS) (Fc fusion)
chain 1: QVQLQESGGGLVQTGGSLRLSCAVHGRTFSNTGMGWFRQAPGNERQFVAIISPSGTSTYYADSVKGRFTISRDPAKNTVYLQMNSLKMDDTAVYYCAASYGSNWSTLRHQRRNEYDAWGQGTQVAVSRSGPPCPPCPAPEFLGGPSVFLFPPKPKDTLMISRTPEVTCVVVDVSQEDPEVQFNWYVDGVEVHNAKTKPREEQFNSTYRVVSVLTVLHQDWLNGKEYKCKVSNKGLPSSIEKTISKAKGQPREPQVYTLPPCQEEMTKNQVSLWCLVKGFYPSDIAVEWESNGQPENNYKTTPPVLDSDGSFFLYSRLTVDKSRWQEGNVFSCSVMHEALHNHYTQKSLSLSLGK
chain 2: EVQLLESGGGLVQPGGSLRLSCAASGFTFGNYDMAWVRQAPGKRPEWVSSIDTGGDITHYADSVKGRFTISRDNAKNTLYLQMNSLRPEDTAVYWCATDEEYALGPNEFDYYGQGTLVTVSSRSGPPCPPCPAPEFLGGPSVFLFPPKPKDTLMISRTPEVTCVVVDVSQEDPEVQFNWYVDGVEVHNAKTKPREEQFNSTYRVVSVLTVLHQDWLNGKEYKCKVSNKGLPSSIEKTISKAKGQPREPQVCTLPPSQEEMTKNQVSLSCAVKGFYPSDIAVEWESNGQPENNYKTTPPVLDSDGSFFLVSRLTVDKSRWQEGNVFSCSVMHEALHNHYTQKSLSLSLGK
B3: NIgG4A1A1(RS) (Fc fusion)
chain 1: EVQLLESGGGLVQPGGSLRLSCAASGFTFGNYDMAWVRQAPGKRPEWVSSIDTGGDITHYADSVKGRFTISRDNAKNTLYLQMNSLRPEDTAVYWCATDEEYALGPNEFDYYGQGTLVTVSSRSGPPCPPCPAPEFLGGPSVFLFPPKPKDTLMISRTPEVTCVVVDVSQEDPEVQFNWYVDGVEVHNAKTKPREEQFNSTYRVVSVLTVLHQDWLNGKEYKCKVSNKGLPSSIEKTISKAKGQPREPQVYTLPPCQEEMTKNQVSLWCLVKGFYPSDIAVEWESNGQPENNYKTTPPVLDSDGSFFLYSRLTVDKSRWQEGNVFSCSVMHEALHNHYTQKSLSLSLGK
chain 2: EVQLLESGGGLVQPGGSLRLSCAASGFTFGNYDMAWVRQAPGKRPEWVSSIDTGGDITHYADSVKGRFTISRDNAKNTLYLQMNSLRPEDTAVYWCATDEEYALGPNEFDYYGQGTLVTVSSRSGPPCPPCPAPEFLGGPSVFLFPPKPKDTLMISRTPEVTCVVVDVSQEDPEVQFNWYVDGVEVHNAKTKPREEQFNSTYRVVSVLTVLHQDWLNGKEYKCKVSNKGLPSSIEKTISKAKGQPREPQVCTLPPSQEEMTKNQVSLSCAVKGFYPSDIAVEWESNGQPENNYKTTPPVLDSDGSFFLVSRLTVDKSRWQEGNVFSCSVMHEALHNHYTQKSLSLSLGK
B4: NIgG4B1A1(G4S)3 (Fc fusion)
chain 1: QVQLQESGGGLVQTGGSLRLSCAVHGRTFSNTGMGWFRQAPGNERQFVAIISPSGTSTYYADSVKGRFTISRDPAKNTVYLQMNSLKMDDTAVYYCAASYGSNWSTLRHQRRNEYDAWGQGTQVAVSGGGGSGGGGSGGGGSGPPCPPCPAPEFLGGPSVFLFPPKPKDTLMISRTPEVTCVVVDVSQEDPEVQFNWYVDGVEVHNAKTKPREEQFNSTYRVVSVLTVLHQDWLNGKEYKCKVSNKGLPSSIEKTISKAKGQPREPQVYTLPPCQEEMTKNQVSLWCLVKGFYPSDIAVEWESNGQPENNYKTTPPVLDSDGSFFLYSRLTVDKSRWQEGNVFSCSVMHEALHNHYTQKSLSLSLGK
chain 2: EVQLLESGGGLVQPGGSLRLSCAASGFTFGNYDMAWVRQAPGKRPEWVSSIDTGGDITHYADSVKGRFTISRDNAKNTLYLQMNSLRPEDTAVYWCATDEEYALGPNEFDYYGQGTLVTVSSGGGGSGGGGSGGGGSGPPCPPCPAPEFLGGPSVFLFPPKPKDTLMISRTPEVTCVVVDVSQEDPEVQFNWYVDGVEVHNAKTKPREEQFNSTYRVVSVLTVLHQDWLNGKEYKCKVSNKGLPSSIEKTISKAKGQPREPQVCTLPPSQEEMTKNQVSLSCAVKGFYPSDIAVEWESNGQPENNYKTTPPVLDSDGSFFLVSRLTVDKSRWQEGNVFSCSVMHEALHNHYTQKSLSLSLGK
B5: NIgG4A1A1(G4S)3 (Fc fusion)
chain 1: EVQLLESGGGLVQPGGSLRLSCAASGFTFGNYDMAWVRQAPGKRPEWVSSIDTGGDITHYADSVKGRFTISRDNAKNTLYLQMNSLRPEDTAVYWCATDEEYALGPNEFDYYGQGTLVTVSSGGGGSGGGGSGGGGSGPPCPPCPAPEFLGGPSVFLFPPKPKDTLMISRTPEVTCVVVDVSQEDPEVQFNWYVDGVEVHNAKTKPREEQFNSTYRVVSVLTVLHQDWLNGKEYKCKVSNKGLPSSIEKTISKAKGQPREPQVYTLPPCQEEMTKNQVSLWCLVKGFYPSDIAVEWESNGQPENNYKTTPPVLDSDGSFFLYSRLTVDKSRWQEGNVFSCSVMHEALHNHYTQKSLSLSLGK
chain 2: EVQLLESGGGLVQPGGSLRLSCAASGFTFGNYDMAWVRQAPGKRPEWVSSIDTGGDITHYADSVKGRFTISRDNAKNTLYLQMNSLRPEDTAVYWCATDEEYALGPNEFDYYGQGTLVTVSSGGGGSGGGGSGGGGSGPPCPPCPAPEFLGGPSVFLFPPKPKDTLMISRTPEVTCVVVDVSQEDPEVQFNWYVDGVEVHNAKTKPREEQFNSTYRVVSVLTVLHQDWLNGKEYKCKVSNKGLPSSIEKTISKAKGQPREPQVCTLPPSQEEMTKNQVSLSCAVKGFYPSDIAVEWESNGQPENNYKTTPPVLDSDGSFFLVSRLTVDKSRWQEGNVFSCSVMHEALHNHYTQKSLSLSLGK
B6: NIgG4A1A1(G4S)1 (Fc fusion)
chain 1: EVQLLESGGGLVQPGGSLRLSCAASGFTFGNYDMAWVRQAPGKRPEWVSSIDTGGDITHYADSVKGRFTISRDNAKNTLYLQMNSLRPEDTAVYWCATDEEYALGPNEFDYYGQGTLVTVSSGGGGSGPPCPPCPAPEFLGGPSVFLFPPKPKDTLMISRTPEVTCVVVDVSQEDPEVQFNWYVDGVEVHNAKTKPREEQFNSTYRVVSVLTVLHQDWLNGKEYKCKVSNKGLPSSIEKTISKAKGQPREPQVYTLPPCQEEMTKNQVSLWCLVKGFYPSDIAVEWESNGQPENNYKTTPPVLDSDGSFFLYSRLTVDKSRWQEGNVFSCSVMHEALHNHYTQKSLSLSLGK
chain 2: EVQLLESGGGLVQPGGSLRLSCAASGFTFGNYDMAWVRQAPGKRPEWVSSIDTGGDITHYADSVKGRFTISRDNAKNTLYLQMNSLRPEDTAVYWCATDEEYALGPNEFDYYGQGTLVTVSSGGGGSGPPCPPCPAPEFLGGPSVFLFPPKPKDTLMISRTPEVTCVVVDVSQEDPEVQFNWYVDGVEVHNAKTKPREEQFNSTYRVVSVLTVLHQDWLNGKEYKCKVSNKGLPSSIEKTISKAKGQPREPQVCTLPPSQEEMTKNQVSLSCAVKGFYPSDIAVEWESNGQPENNYKTTPPVLDSDGSFFLVSRLTVDKSRWQEGNVFSCSVMHEALHNHYTQKSLSLSLGK
B7: NIgG4B1A1(G4S)2 (Fc fusion)
chain 1: QVQLQESGGGLVQTGGSLRLSCAVHGRTFSNTGMGWFRQAPGNERQFVAIISPSGTSTYYADSVKGRFTISRDPAKNTVYLQMNSLKMDDTAVYYCAASYGSNWSTLRHQRRNEYDAWGQGTQVAVSGGGGSGGGGSGPPCPPCPAPEFLGGPSVFLFPPKPKDTLMISRTPEVTCVVVDVSQEDPEVQFNWYVDGVEVHNAKTKPREEQFNSTYRVVSVLTVLHQDWLNGKEYKCKVSNKGLPSSIEKTISKAKGQPREPQVYTLPPCQEEMTKNQVSLWCLVKGFYPSDIAVEWESNGQPENNYKTTPPVLDSDGSFFLYSRLTVDKSRWQEGNVFSCSVMHEALHNHYTQKSLSLSLGK
chain 2: EVQLLESGGGLVQPGGSLRLSCAASGFTFGNYDMAWVRQAPGKRPEWVSSIDTGGDITHYADSVKGRFTISRDNAKNTLYLQMNSLRPEDTAVYWCATDEEYALGPNEFDYYGQGTLVTVSSGGGGSGGGGSGPPCPPCPAPEFLGGPSVFLFPPKPKDTLMISRTPEVTCVVVDVSQEDPEVQFNWYVDGVEVHNAKTKPREEQFNSTYRVVSVLTVLHQDWLNGKEYKCKVSNKGLPSSIEKTISKAKGQPREPQVCTLPPSQEEMTKNQVSLSCAVKGFYPSDIAVEWESNGQPENNYKTTPPVLDSDGSFFLVSRLTVDKSRWQEGNVFSCSVMHEALHNHYTQKSLSLSLGK
B8: NIgG4A1A1(G4S)2 (Fc fusion)
chain 1: EVQLLESGGGLVQPGGSLRLSCAASGFTFGNYDMAWVRQAPGKRPEWVSSIDTGGDITHYADSVKGRFTISRDNAKNTLYLQMNSLRPEDTAVYWCATDEEYALGPNEFDYYGQGTLVTVSSGGGGSGGGGSGPPCPPCPAPEFLGGPSVFLFPPKPKDTLMISRTPEVTCVVVDVSQEDPEVQFNWYVDGVEVHNAKTKPREEQFNSTYRVVSVLTVLHQDWLNGKEYKCKVSNKGLPSSIEKTISKAKGQPREPQVYTLPPCQEEMTKNQVSLWCLVKGFYPSDIAVEWESNGQPENNYKTTPPVLDSDGSFFLYSRLTVDKSRWQEGNVFSCSVMHEALHNHYTQKSLSLSLGK
chain 2: EVQLLESGGGLVQPGGSLRLSCAASGFTFGNYDMAWVRQAPGKRPEWVSSIDTGGDITHYADSVKGRFTISRDNAKNTLYLQMNSLRPEDTAVYWCATDEEYALGPNEFDYYGQGTLVTVSSGGGGSGGGGSGPPCPPCPAPEFLGGPSVFLFPPKPKDTLMISRTPEVTCVVVDVSQEDPEVQFNWYVDGVEVHNAKTKPREEQFNSTYRVVSVLTVLHQDWLNGKEYKCKVSNKGLPSSIEKTISKAKGQPREPQVCTLPPSQEEMTKNQVSLSCAVKGFYPSDIAVEWESNGQPENNYKTTPPVLDSDGSFFLVSRLTVDKSRWQEGNVFSCSVMHEALHNHYTQKSLSLSLGK
B9: sdAb F6 (VHH)
VHH: DVQLQESGGGLVQAGGSLRLSCAASGLTFGSYDMGWYRQAPGKQRELVGRIRNDGITYYADSVKGRFTMSRDNAKNTVYLQMNSLKPEDTAVYYCAADGTGLGHYDYWGQGTQVTVS

The target in this assay is mixture of three Der p 2 specific recombinant human IgE clones H10, H12, P4E (human) (UniProt P01854). Briefly: RBL-SX38 IgE displacement, FACS.
mixture of three Der p 2 specific recombinant human IgE clones H10, H12, P4E (human), sequence (P01854 other isoform, or with tags, fused parts or gaps): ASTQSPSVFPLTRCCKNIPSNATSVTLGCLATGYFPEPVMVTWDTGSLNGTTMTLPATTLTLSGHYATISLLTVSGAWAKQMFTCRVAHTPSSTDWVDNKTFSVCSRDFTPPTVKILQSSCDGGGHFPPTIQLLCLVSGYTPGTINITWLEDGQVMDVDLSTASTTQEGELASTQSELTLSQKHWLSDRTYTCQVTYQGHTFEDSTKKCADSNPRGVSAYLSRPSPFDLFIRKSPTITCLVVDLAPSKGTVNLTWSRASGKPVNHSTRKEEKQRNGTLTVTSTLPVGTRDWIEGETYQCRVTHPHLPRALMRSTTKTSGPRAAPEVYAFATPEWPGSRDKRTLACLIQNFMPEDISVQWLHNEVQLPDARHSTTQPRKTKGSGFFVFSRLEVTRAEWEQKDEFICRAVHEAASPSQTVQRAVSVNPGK
For B1, the Max effect/effect 1 µM is 17%. As to B2, the EC50 stood at 3 nM and the Max effect/effect 1 µM was found to be 99%. With B3, the Max effect/effect 1 µM came to 45%. For B4, the concentration for a half-maximal effect (EC50) was 2.6 nM and the Max effect/effect 1 µM came to 99%.

For the molecule B5, the Max effect/effect 1 µM is 40%. For the molecule B6, the Max effect/effect 1 µM is 44%. Consider B7, for which the EC50 is 3 nM and the Max effect/effect 1 µM stood at 99%. Regarding B8, the Max effect/effect 1 µM was found to be 36%. On the same count and under the same terms, with B9 the figure was 26%.

For the origin of these results see patent US20250171562A1.
